Source: article PMC3964825

B1: HOTAIR 212-300 (minHOTAIR) (structured_RNA)
RNA: GGAACGGAUUUAGAAGCCUGCAGUAGGGGAGUGGGGAGUGGAGAGAGGGAGCCCAGAGUUACAGACGGCGGCGAGAGGAAGGAGGGGCGGAU
B2: HOTAIR 101-300 (structured_RNA)
RNA: GACCAACACCCCUGCUCCUGGCGGCUCCCACCCGGGGCUUAGACCCUCAGGUCCCUAAUAUCCCGGAGGUGCUCUCAAUCAGAAAGGUCCUGCUCCGCUUCGCAGUGGAAUGGAACGGAUUUAGAAGCCUGCAGUAGGGGAGUGGGGAGUGGAGAGAGGGAGCCCAGAGUUACAGACGGCGGCGAGAGGAAGGAGGGGCGGAU
B3: HOTAIR 201-300 (structured_RNA)
RNA: GCAGUGGAAUGGAACGGAUUUAGAAGCCUGCAGUAGGGGAGUGGGGAGUGGAGAGAGGGAGCCCAGAGUUACAGACGGCGGCGAGAGGAAGGAGGGGCGGAU
B4: HOTAIR 1-100 (structured_RNA)
RNA: GACUCGCCUGUGCUCUGGAGCUUGAUCCGAAAGCUUCCACAGUGAGGACUGCUCCGUGGGGGUAAGAGAGCACCAGGCACUGAGGCCUGGGAGUUCCACA

Key:
Assay in all cases: EMSA
[1] = molecular target: LSD1 (UniProt O60341 1-852)
[2] = molecular target: PRC2 3m (EZH2-EED-SUZ12) (UniProt Q15910;O75530;Q15022 1-746;1-441;1-739)
[3] = molecular target: EZH2-EED (UniProt Q15910;O75530 1-746;1-441)
Sequence of EZH2-EED (Q15910 whole entry, chain 1 of 2): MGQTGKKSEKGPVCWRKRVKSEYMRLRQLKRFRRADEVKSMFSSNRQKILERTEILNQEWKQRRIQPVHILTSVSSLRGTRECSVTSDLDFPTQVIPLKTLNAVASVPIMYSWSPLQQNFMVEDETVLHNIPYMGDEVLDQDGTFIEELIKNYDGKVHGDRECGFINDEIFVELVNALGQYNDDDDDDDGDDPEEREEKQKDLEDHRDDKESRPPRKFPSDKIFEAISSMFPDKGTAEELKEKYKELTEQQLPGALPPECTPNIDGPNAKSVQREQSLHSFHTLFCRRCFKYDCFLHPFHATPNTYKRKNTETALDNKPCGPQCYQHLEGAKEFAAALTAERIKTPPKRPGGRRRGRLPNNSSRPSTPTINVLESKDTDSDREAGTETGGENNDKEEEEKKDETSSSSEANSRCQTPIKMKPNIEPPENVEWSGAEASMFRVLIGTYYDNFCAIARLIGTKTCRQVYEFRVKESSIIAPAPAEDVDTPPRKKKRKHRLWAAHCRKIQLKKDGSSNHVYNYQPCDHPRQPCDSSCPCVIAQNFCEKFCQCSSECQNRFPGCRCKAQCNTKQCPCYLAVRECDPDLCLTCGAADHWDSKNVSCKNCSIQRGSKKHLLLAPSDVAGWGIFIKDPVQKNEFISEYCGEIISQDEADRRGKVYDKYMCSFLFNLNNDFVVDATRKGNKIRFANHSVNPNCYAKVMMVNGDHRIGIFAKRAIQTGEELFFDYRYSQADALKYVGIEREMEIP
Sequence of EZH2-EED (O75530 whole entry, chain 2 of 2): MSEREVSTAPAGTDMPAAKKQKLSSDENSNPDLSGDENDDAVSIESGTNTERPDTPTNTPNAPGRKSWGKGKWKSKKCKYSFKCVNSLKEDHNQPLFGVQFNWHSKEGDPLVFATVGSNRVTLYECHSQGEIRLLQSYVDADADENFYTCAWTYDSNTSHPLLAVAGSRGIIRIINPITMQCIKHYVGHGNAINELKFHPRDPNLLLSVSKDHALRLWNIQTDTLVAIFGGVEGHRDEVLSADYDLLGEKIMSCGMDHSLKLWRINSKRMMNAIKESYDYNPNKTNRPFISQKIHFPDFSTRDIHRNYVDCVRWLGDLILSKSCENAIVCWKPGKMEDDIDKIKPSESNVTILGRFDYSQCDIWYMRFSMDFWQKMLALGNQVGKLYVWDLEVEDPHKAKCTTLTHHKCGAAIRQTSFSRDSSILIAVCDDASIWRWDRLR

Sequence of PRC2 3m (EZH2-EED-SUZ12) (Q15910 whole entry, chain 1 of 3): as the sequence (Q15910 whole entry, chain 1 of 2) above
Sequence of PRC2 3m (EZH2-EED-SUZ12) (O75530 whole entry, chain 2 of 3): as the sequence (O75530 whole entry, chain 2 of 2) above
Sequence of PRC2 3m (EZH2-EED-SUZ12) (Q15022 whole entry, chain 3 of 3): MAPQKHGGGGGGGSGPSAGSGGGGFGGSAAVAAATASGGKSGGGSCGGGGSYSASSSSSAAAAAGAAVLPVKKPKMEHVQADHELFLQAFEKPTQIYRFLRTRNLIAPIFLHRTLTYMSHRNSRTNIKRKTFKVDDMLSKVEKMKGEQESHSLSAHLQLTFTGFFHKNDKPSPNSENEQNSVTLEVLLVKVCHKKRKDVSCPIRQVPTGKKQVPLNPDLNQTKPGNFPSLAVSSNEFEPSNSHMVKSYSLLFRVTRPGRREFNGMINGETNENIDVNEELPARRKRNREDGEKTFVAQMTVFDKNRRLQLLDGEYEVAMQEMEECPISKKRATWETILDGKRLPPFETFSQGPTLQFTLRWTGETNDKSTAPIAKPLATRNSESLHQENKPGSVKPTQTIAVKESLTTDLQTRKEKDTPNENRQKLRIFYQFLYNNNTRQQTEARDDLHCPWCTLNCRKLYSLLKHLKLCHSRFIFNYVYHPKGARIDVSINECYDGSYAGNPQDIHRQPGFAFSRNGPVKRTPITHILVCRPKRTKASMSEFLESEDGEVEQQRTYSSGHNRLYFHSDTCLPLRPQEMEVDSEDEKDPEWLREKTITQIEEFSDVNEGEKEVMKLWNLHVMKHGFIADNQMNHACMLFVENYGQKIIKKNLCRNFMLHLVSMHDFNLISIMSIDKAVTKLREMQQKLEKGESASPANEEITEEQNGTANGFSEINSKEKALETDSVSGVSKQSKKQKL

| Binder | binding result [1] | Kd [2] [nM] | Kd [3] [nM] | binding result [3] |
| --- | --- | --- | --- | --- |
| B1 | no binding | 111 ± 10 | 135 ± 20 |  |
| B2 |  |  | 119 ± 18 |  |
| B3 |  |  | 157 ± 12 |  |
| B4 |  |  |  | no binding |
